From the supplement of paper PMC10567573

B1: RAD51 (parent)
chain: APKKELINIKGISEAKADKILAEA

Variants of: B1
Assay: protein stability index of a GFP-peptide fusion (GPS, HEK-293T) (PSI 1-6); higher = more stable
Details: c terminus: a fixed tail appended
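Also: lentivirally expressed fusions sorted by FACS into six bins by GFP to DsRed ratio, PSI derived from sequencing read proportions per bin multiplied by bin number.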

Variant	protein stability index
APKKELINILGISEAKADKILAEA [K10L]	4.29
APKKELINIYGISEAKADKILAEA [K10Y]	3.8
APKKELINICGISEAKADKILAEA [K10C]	4.19
APKKELINIAGISEAKADKILAEA [K10A]	4.56
APKKELINIFGISEAKADKILAEA [K10F]	3.82
APKKELINIKGISEATADKILAEA [K16T]	5.22
APKKELINIKGISEAFADKILAEA [K16F]	3.67
APKKELINIKGISEADADKILAEA [K16D]	5
APKKELINIKGISEAVADKILAEA [K16V]	3.98
APKKELINIKGISEAIADKILAEA [K16I]	3.8
APKKELINIKGISEAQADKILAEA [K16Q]	4.65
APKKELINIKGISEAKASKILAEA [D18S]	3.53
APKKELINIKGISEAKAQKILAEA [D18Q]	4.27
APKKELINIKGISEAKAIKILAEA [D18I]	3.62
APKKELINIKGISEAKARKILAEA [D18R]	4.07
APKKELINIKGISEAKAVKILAEA [D18V]	4.07
APKKELINIKGISEAKAWKILAEA [D18W]	2.76
APKKELIYIKGISEAKADKILAEA [N8Y]	4.39
APKKELIIIKGISEAKADKILAEA [N8I]	3.43
APKKELIEIKGISEAKADKILAEA [N8E]	5.07
APKKELIPIKGISEAKADKILAEA [N8P]	4.88
APKKELIVIKGISEAKADKILAEA [N8V]	4.07
APKKELISIKGISEAKADKILAEA [N8S]	4.32
APKKELIFIKGISEAKADKILAEA [N8F]	3.76

Variant	protein stability index
APKKELIDIKGISEAKADKILAEA [N8D]	4.88
APKKELIQIKGISEAKADKILAEA [N8Q]	4.67
APKKELIAIKGISEAKADKILAEA [N8A]	4.7
APKKELINIKGISEAKTDKILAEA [A17T]	4.42
APKKELINIKGISEAKRDKILAEA [A17R]	4.62
APKKELINIKGISEAKQDKILAEA [A17Q]	5.11
APKKELINIKGISEAKPDKILAEA [A17P]	4.82
APKKELINIKGISEAKGDKILAEA [A17G]	4.84
APKKELINIKGISEAKMDKILAEA [A17M]	4.43
APKKELINIKGISEAKCDKILAEA [A17C]	5.04
APKKELINIKGISEAKIDKILAEA [A17I]	4.15
APKKELINIKGISEAKADKILAEN [A24N]	4.96
APKKELINIKGISEAKADKILAEG [A24G]	4.9
APKKELINIKGISEAKADKILAEM [A24M]	4.34
APKKELINIKGISEAKADKILAER [A24R]	4.83
APKKELINIKGISEAKADKILAEH [A24H]	4.76
APKKELINIKGISEAKADKILAEP [A24P]	4.91
ASKKELINIKGISEAKADKILAEA [P2S]	4.36
AVKKELINIKGISEAKADKILAEA [P2V]	4.44
AYKKELINIKGISEAKADKILAEA [P2Y]	4.18
AAKKELINIKGISEAKADKILAEA [P2A]	4.93
AFKKELINIKGISEAKADKILAEA [P2F]	3.62
AGKKELINIKGISEAKADKILAEA [P2G]	4.68
APKKELINFKGISEAKADKILAEA [I9F]	4.51

Variant	protein stability index
APKKELINEKGISEAKADKILAEA [I9E]	5.68
APKKELINWKGISEAKADKILAEA [I9W]	4.65
APKKELINMKGISEAKADKILAEA [I9M]	5.06
APKKELINVKGISEAKADKILAEA [I9V]	5.1
APKKELINRKGISEAKADKILAEA [I9R]	5.12
APKKELINNKGISEAKADKILAEA [I9N]	5.26
APKKELINPKGISEAKADKILAEA [I9P]	5.4
APKKELINCKGISEAKADKILAEA [I9C]	5.4
APKKELINDKGISEAKADKILAEA [I9D]	5.19
APKKLLINIKGISEAKADKILAEA [E5L]	3.65
APKKKLINIKGISEAKADKILAEA [E5K]	4
APKKWLINIKGISEAKADKILAEA [E5W]	3.01
APKKTLINIKGISEAKADKILAEA [E5T]	3.85
APKKPLINIKGISEAKADKILAEA [E5P]	4.54
APKKILINIKGISEAKADKILAEA [E5I]	3.4
APKKCLINIKGISEAKADKILAEA [E5C]	3.56
APKKELINIKGISEAKADRILAEA [K19R]	4.26
APKKELINIKGISEAKADFILAEA [K19F]	3.7
APKKELINIKGISEAKADNILAEA [K19N]	4.84
APKKELINIKGISEAKADIILAEA [K19I]	3.38
APKKELINIKGISEAKADYILAEA [K19Y]	4.61
APKKELINIKGISEAKADDILAEA [K19D]	4.98
APKKELINIKGISEAKADTILAEA [K19T]	4.83
APKKELINIKGISEAKADAILAEA [K19A]	3.63

Variant	protein stability index
APKKELINIKGISEAKADPILAEA [K19P]	4.48
APKKELINIKGISEAKADKCLAEA [I20C]	5.14
APKKELINIKGISEAKADKHLAEA [I20H]	5.11
APKKELINIKGISEAKADKKLAEA [I20K]	5.46
APKKELINIKGISEAKADKPLAEA [I20P]	5.5
APKKELINIKGISEAKADKFLAEA [I20F]	4.02
APKKELINIKGISEAKADKWLAEA [I20W]	4.26
APKDELINIKGISEAKADKILAEA [K4D]	5.31
APKWELINIKGISEAKADKILAEA [K4W]	3.98
APKPELINIKGISEAKADKILAEA [K4P]	5.05
APKFELINIKGISEAKADKILAEA [K4F]	4.5
APKCELINIKGISEAKADKILAEA [K4C]	4.68
APKMELINIKGISEAKADKILAEA [K4M]	4.13
APKQELINIKGISEAKADKILAEA [K4Q]	4.6
SPKKELINIKGISEAKADKILAEA [A1S]	4.52
GPKKELINIKGISEAKADKILAEA [A1G]	4.71
HPKKELINIKGISEAKADKILAEA [A1H]	4.37
MPKKELINIKGISEAKADKILAEA [A1M]	4.06
WPKKELINIKGISEAKADKILAEA [A1W]	3.75
APKKELTNIKGISEAKADKILAEA [I7T]	5.04
APKKELCNIKGISEAKADKILAEA [I7C]	4.21
APKKELHNIKGISEAKADKILAEA [I7H]	5.01
